Experimental data: patent US20220064275A1 (SCHOLAR ROCK, published 2022)

Tests used:
[1] = biological target: T1, human LRRC33-proTGFβ1 complex (human, UniProt Q86YC3 19-650; P01137 30-390); test: MSD-SET, solution equilibrium titration
T1 construct: also called hLRRC33-proTGFβ1; hLRRC33
Procedure: (§1) MSD-SET assays were performed to measure affinities of the antibodies at equilibrium. Briefly, each test antibody was diluted 3-5 fold and samples were mixed with biotinylated antigen in a 48-well dish. The SET samples were equilibrated for 20-24 hours at room temperature. Meanwhile, a capture plate was coated with IgG (20 nM) and incubated overnight at 4° C. or 30 minutes at room temperature, followed by a blocking step with 5% BSA. After the capture plate was washed three times, SET samples were added and incubated for 150 seconds. The plate was washed once to remove unbound complexes. 250 ng/ml SA-Sulfotag was added then washed 3 times. 2× Read Buffer was added, and signals from the labeled bound complexes were read with the use of QuickPlex™ SQ 120 instrument.

[2] = biological target: T2, human GARP-proTGFβ1 complex (human, UniProt Q14392 20-627; P01137 30-390); test: MSD-SET, solution equilibrium titration
T2 construct: also called hGARP-proTGFβ1; hGARP
T2 sequence (Q14392 20-627, chain 1 of 2): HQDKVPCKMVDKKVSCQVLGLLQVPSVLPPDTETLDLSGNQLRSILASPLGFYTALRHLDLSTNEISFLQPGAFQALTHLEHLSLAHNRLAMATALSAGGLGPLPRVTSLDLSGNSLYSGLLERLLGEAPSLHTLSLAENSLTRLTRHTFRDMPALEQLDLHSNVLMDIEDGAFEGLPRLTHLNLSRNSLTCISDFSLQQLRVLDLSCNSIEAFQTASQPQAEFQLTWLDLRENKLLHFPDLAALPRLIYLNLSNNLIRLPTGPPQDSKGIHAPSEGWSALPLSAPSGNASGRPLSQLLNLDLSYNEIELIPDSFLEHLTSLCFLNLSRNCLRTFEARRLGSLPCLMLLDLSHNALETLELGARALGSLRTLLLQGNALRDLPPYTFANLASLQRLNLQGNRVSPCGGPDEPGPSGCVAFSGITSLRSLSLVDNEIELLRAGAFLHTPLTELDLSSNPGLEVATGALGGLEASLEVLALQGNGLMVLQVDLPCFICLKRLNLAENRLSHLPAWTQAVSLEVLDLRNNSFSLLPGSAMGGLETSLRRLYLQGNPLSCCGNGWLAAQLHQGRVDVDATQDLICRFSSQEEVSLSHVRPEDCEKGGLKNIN
T2 sequence (P01137 30-390, chain 2 of 2): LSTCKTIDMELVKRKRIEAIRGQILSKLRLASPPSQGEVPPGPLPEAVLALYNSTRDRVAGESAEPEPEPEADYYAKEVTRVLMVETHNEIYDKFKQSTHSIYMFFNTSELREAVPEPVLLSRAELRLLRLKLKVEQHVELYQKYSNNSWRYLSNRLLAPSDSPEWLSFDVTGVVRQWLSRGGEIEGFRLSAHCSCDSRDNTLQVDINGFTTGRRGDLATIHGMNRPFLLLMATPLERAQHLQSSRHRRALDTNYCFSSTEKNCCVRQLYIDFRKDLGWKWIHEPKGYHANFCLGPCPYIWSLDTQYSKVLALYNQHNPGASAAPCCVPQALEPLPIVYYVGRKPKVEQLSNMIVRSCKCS
Procedure: as §1

[3] = biological target: T3, human LTBP1-proTGFβ1 complex (human, UniProt Q14766 873-1507); test: MSD-SET, solution equilibrium titration
T3 construct: range 873-1507; biotinylated in Octet and MSD-SET; also called hLTBP1-proTGFβ1; hLTBP1
T3 sequence (Q14766 873-1507 limits assumed, chain 1 of 2): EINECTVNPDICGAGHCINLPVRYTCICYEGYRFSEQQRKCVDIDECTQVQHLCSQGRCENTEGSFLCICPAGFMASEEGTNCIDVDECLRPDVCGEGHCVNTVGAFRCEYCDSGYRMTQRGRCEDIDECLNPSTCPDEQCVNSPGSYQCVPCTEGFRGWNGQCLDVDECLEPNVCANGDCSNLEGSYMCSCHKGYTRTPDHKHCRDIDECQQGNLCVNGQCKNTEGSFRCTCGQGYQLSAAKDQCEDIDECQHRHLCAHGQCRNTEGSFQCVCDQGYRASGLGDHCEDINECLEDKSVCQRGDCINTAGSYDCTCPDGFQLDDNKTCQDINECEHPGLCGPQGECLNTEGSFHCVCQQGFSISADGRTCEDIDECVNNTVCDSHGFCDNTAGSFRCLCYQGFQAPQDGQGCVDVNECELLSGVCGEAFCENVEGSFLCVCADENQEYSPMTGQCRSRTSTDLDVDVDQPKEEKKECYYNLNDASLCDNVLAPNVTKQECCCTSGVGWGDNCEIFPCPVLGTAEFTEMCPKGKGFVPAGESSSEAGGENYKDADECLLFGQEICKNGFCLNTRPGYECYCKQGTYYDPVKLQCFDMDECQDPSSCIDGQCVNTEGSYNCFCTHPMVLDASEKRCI
T3 sequence (chain, as listed by the source limits assumed, chain 2 of 2): as the sequence (P01137 30-390, chain 2 of 2) above
Procedure: as §1

[4] = biological target: T4, human LTBP3-proTGFβ1 complex (human, UniProt Q9NS15 866-1039); test: MSD-SET, solution equilibrium titration
T4 construct: range 866-1039; also called hLTBP3-proTGFβ1; hLTBP3
T4 sequence (Q9NS15 866-1039 limits assumed, chain 1 of 2): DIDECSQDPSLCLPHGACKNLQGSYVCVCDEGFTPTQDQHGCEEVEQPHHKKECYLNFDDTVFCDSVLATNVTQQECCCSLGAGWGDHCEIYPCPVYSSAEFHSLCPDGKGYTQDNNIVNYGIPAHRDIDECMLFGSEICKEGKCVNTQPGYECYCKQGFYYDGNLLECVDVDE
T4 sequence (chain, as listed by the source limits assumed, chain 2 of 2): as the sequence (P01137 30-390, chain 2 of 2) above
Procedure: as §1

[5] = biological target: hLTBP3-proTGFβ1 complex made by transfected cells (cell-based potency assay) (human, UniProt Q9NS15 44-1303; P01137 30-390); test: cell-based or functional assay
[6] = biological target: hLTBP1-proTGFβ1 complex made by transfected cells (cell-based potency assay) (human, UniProt Q14766 347-1721; P01137 30-390); test: cell-based or functional assay
[7] = biological target: hLRRC33-proTGFβ1 complex on cells (human, UniProt Q86YC3 19-692; P01137 30-390); test: cell-based or functional assay
hLRRC33-proTGFβ1 complex on cells, sequence (Q86YC3 19-692 limits assumed, chain 1 of 2): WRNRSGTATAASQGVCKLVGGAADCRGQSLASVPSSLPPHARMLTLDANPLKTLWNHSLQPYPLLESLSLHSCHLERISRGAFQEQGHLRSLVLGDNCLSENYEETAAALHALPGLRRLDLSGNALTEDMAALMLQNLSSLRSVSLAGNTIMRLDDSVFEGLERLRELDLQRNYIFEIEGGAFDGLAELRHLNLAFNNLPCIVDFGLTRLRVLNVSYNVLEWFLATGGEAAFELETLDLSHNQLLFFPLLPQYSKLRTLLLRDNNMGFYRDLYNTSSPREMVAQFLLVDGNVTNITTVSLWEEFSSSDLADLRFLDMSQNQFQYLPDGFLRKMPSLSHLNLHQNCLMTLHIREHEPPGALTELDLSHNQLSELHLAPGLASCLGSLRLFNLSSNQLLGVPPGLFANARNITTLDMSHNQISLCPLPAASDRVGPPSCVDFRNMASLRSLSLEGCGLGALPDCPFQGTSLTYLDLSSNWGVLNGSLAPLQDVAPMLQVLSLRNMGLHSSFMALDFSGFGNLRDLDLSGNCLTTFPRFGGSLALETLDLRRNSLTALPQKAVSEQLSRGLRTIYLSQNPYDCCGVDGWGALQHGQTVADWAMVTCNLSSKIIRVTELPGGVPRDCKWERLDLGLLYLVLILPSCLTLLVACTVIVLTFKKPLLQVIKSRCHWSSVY
hLRRC33-proTGFβ1 complex on cells, sequence (P01137 30-390 limits assumed, chain 2 of 2): as the sequence (P01137 30-390, chain 2 of 2) above

[8] = biological target: hGARP-proTGFβ1 complex on cells (human, UniProt Q14392 20-662; P01137 30-390); test: cell-based or functional assay
[9] = biological target: T1, human LRRC33-proTGFβ1 complex; test: BLI (Octet)
[10] = biological target: T2, human GARP-proTGFβ1 complex; test: BLI (Octet)
[11] = biological target: T3, human LTBP1-proTGFβ1 complex; test: BLI (Octet)
[12] = biological target: T4, human LTBP3-proTGFβ1 complex; test: BLI (Octet)
[13] = biological target: T5, murine LTBP3-proTGFβ1 complex (mouse, UniProt Q61810 41-1245; P04202 30-390, limits assumed); test: MSD-SET, solution equilibrium titration; MSD-SET, Table 21, mouse complex
T5 construct: also called mLTBP3-proTGFβ1

[14] = biological target: T6, murine LRRC33-proTGFβ1 complex (mouse, UniProt Q8BMT4 20-651, limits assumed); test: MSD-SET, solution equilibrium titration
T6 construct: also called mLRRC33-proTGFβ1
Procedure: as §1
(§2) As an example, MSD standard plates (MSD) were coated with a 20 nM solution of monoclonal antibody in PBS for 30 min at room temperature or overnight at 4° C. […] After 20-24 hours of equilibration, the antibody-coated plate was blocked with Blocking Buffer A (MSD) for 30 minutes at room temperature and washed with wash buffer (PBS, 0.1% BSA, 0.05% Tween-20) before adding the equilibrated antibody-antigen complexes to the plate for exactly 2.5 minutes. The plate was washed again with wash buffer before adding 250 ng/ml SULFO-TAG-labeled streptavidin secondary reagent (MSD) in PBS with 0.1% BSA. After washing with wash buffer, plates were read in MSD read buffer (MSD) using the MESO QuickPlex SQ 120 (MSD). The binding data were processed by nonlinear curve fitting in Prism 7 software (Graphpad) to calculate equilibrium binding KD values.

[15] = biological target: T1, human LRRC33-proTGFβ1 complex; test: MSD-SET, solution equilibrium titration; remark: listed apart in the source
Procedure: as §1, §2

[16] = biological target: rat LRRC33-proTGFβ1 complex (rat, UniProt Q5BK65 25-650; P17246 30-390); test: MSD-SET, solution equilibrium titration
rat LRRC33-proTGFβ1 complex, sequence (Q5BK65 25-650, chain 1 of 2): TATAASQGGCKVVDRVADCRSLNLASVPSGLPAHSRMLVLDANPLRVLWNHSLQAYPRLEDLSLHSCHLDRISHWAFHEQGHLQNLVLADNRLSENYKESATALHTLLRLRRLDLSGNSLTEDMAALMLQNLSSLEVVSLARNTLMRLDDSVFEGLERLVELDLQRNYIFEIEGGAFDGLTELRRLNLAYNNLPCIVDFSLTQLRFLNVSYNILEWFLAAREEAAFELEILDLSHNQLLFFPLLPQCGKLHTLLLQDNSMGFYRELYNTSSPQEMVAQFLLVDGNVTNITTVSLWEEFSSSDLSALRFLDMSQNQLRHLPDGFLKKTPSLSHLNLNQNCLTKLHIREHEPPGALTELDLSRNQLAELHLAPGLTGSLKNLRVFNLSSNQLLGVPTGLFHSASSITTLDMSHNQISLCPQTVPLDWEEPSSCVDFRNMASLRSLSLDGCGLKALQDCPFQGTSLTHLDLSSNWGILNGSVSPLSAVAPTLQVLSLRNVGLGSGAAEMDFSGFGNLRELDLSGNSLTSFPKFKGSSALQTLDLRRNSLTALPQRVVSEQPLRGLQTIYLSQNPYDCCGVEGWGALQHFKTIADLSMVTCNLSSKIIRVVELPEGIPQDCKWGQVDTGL
rat LRRC33-proTGFβ1 complex, sequence (P17246 30-390, chain 2 of 2): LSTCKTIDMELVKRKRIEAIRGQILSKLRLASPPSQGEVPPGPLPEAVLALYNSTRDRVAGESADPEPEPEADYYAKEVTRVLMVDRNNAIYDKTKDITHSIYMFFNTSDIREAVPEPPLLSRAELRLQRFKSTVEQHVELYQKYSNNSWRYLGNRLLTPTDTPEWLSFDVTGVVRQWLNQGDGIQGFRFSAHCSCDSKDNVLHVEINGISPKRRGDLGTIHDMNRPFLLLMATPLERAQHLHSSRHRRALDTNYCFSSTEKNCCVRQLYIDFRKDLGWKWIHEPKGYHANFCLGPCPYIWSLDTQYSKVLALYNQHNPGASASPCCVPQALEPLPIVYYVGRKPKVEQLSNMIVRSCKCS
Procedure: as §1, §2

[17] = biological target: T1, human LRRC33-proTGFβ1 complex; test: MSD-SET solution equilibrium titration; Ab6 titrated against biotinylated hLRRC33-proTGFβ1, readout % free antigen
Procedure: as §1
as §2, with “The plate was washed again with wash buffer before adding 250 ng/ml SULFO-TAG-labeled streptavidin secondary reagent (MSD) in PBS with 0.1% BSA.” left out, “The binding data were processed by nonlinear curve fitting in Prism 7 software (Graphpad) to calculate equilibrium binding KD values.” left out

[18] = biological target: T7, human mature TGFβ1 growth factor (human, UniProt P01137 279-390); test: in vitro binding assay
T7 construct: Bought from R&D Systems; also called active (mature) TGFβ1 growth factor; free TGFβ1 growth factor
T7 sequence (P01137 279-390 limits assumed): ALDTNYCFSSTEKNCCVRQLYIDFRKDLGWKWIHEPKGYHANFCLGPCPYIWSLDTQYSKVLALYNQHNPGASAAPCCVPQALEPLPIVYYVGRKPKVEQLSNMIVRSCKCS

human proTGFβ1 C4S = biological target: T8, human proTGFβ1 C4S (human, UniProt P01137 30-390); test: method not described
T8 construct: Small latent complex without presenting molecule; the cysteine that links to presenting molecules is changed to serine; also called small latent complex proTGFβ1 C4S; latent TGFβ1
T8 sequence (P01137 other isoform, or with tags, fused parts or gaps): as the sequence (P01137 30-390, chain 2 of 2) above, with C4S counted along it

[19] = biological target: T2, human GARP-proTGFβ1 complex; test: MSD-SET solution equilibrium titration; Ab6 titrated against biotinylated hGARP-proTGFβ1, readout % free antigen
Procedure: as §1
as §2, with “The plate was washed again with wash buffer before adding 250 ng/ml SULFO-TAG-labeled streptavidin secondary reagent (MSD) in PBS with 0.1% BSA.” left out, “The binding data were processed by nonlinear curve fitting in Prism 7 software (Graphpad) to calculate equilibrium binding KD values.” left out

[20] = biological target: T3, human LTBP1-proTGFβ1 complex; test: MSD-SET solution equilibrium titration; Ab6 titrated against biotinylated hLTBP1-proTGFβ1, readout % free antigen
Procedure: as §1
as §2, with “The plate was washed again with wash buffer before adding 250 ng/ml SULFO-TAG-labeled streptavidin secondary reagent (MSD) in PBS with 0.1% BSA.” left out, “The binding data were processed by nonlinear curve fitting in Prism 7 software (Graphpad) to calculate equilibrium binding KD values.” left out

[21] = biological target: T4, human LTBP3-proTGFβ1 complex; test: MSD-SET solution equilibrium titration; Ab6 titrated against biotinylated hLTBP3-proTGFβ1, readout % free antigen
Procedure: as §1
as §2, with “The plate was washed again with wash buffer before adding 250 ng/ml SULFO-TAG-labeled streptavidin secondary reagent (MSD) in PBS with 0.1% BSA.” left out, “The binding data were processed by nonlinear curve fitting in Prism 7 software (Graphpad) to calculate equilibrium binding KD values.” left out

T1 sequence (Q86YC3 other isoform, or with tags, fused parts or gaps limits assumed, chain 1 of 2): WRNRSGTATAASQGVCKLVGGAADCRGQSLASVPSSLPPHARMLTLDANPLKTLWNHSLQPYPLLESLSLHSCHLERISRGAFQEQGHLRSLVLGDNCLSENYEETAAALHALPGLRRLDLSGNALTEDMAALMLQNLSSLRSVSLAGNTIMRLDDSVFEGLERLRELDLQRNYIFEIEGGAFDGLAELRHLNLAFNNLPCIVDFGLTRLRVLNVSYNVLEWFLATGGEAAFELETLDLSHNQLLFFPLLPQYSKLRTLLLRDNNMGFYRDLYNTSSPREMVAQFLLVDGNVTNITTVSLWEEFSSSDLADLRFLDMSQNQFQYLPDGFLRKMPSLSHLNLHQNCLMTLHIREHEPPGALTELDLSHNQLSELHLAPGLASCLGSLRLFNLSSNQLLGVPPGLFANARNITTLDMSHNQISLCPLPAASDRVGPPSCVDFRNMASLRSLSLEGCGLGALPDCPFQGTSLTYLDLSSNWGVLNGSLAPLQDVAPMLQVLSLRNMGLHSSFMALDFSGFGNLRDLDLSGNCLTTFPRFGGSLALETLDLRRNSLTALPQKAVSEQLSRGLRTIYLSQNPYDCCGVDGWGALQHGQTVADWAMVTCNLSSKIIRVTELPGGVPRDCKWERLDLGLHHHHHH
T1 sequence (P01137 30-390 limits assumed, chain 2 of 2): as the sequence (P01137 30-390, chain 2 of 2) above

B1: Ab6 (antibody, human IgG4 S228P, kappa, V domains shown)
VH: EVQLVESGGGLVQPGGSLRLSCTASGFTFSSFSMDWVRQAPGKGLEWVSYISPSADTIYYADSVKGRFTISRDNAKNTLYLQMNSLRAEDTAVYYCARGVLDYGDMLMPWGQGTLVTVSS
VL: DIQMTQSPSSLSASVGDRVTITCQASQDITNYLNWYQQKPGKAPKLLIYDASNLETGVPSRFSGSGSGTDFTFTISSLQPEDIATYYCQQADNHPPWTFGGGTKVEIKR
For B1, which Kd [1] is on record?
Its Kd is 0.063 nM.

What about the Kd [2] of the same binder?
The Kd was 0.027 nM.

And the Kd [3]?
The Kd was 0.018 nM.

And the Kd [4]?
The Kd was 0.029 nM.

And the “IC50, reporter cell assay of TGFβ1 activation” value (“IC50, reporter cell assay” for short) [5]?
Its value is 0.821 nM.

And the “IC50, reporter cell assay” value [6]?
Its value is 2.74 nM.

And the “IC50, reporter cell assay” value [7]?
Its value is 0.495 nM.

And the “IC50, reporter cell assay” value [8]?
The value was 0.324 nM.

And the Kd [9]?
The Kd was 0.336 nM.

And the Kd [10]?
Its Kd is 0.404 nM.

What about the Kd [11] of the same binder?
Its Kd is 0.207 nM.

What about the Kd [12] of the same binder?
The Kd was 0.123 nM.

What about the Kd [13] of the same binder?
Its Kd is 0.022 nM.

And the Kd [14]?
The Kd was 0.048 nM.

And the Kd [15]?
The Kd was 0.063 nM.

What about the Kd [16] of the same binder?
Its Kd is 0.086 nM.

And the “IC50 (read off the curve)” value [17]?
Its value is ~0.07 nM.

Does B1 bind [18]?
Result: no binding

Does B1 bind (human proTGFβ1 C4S)?
Result: binds

What about the “IC50 (read off the curve)” value [19] of the same binder?
The value was ~0.03 nM.

What about the “IC50 (read off the curve)” value [20] of the same binder?
The value was ~0.02 nM.

And the “IC50 (read off the curve)” value [21]?
The value was ~0.03 nM.
